Source: patent US12448434B2, “Antibodies specifically recognizing Pseudomonas PcrV and uses thereof” (priority 2019, dated 2025)
Changes are numbered by the printed parent chain.

Assays:
PcrV-negative A549 cells = assay: Cross-reactivity to PcrV-negative A549 cells by FACS; format: cell-based, human; details: FIGS. 4A-4E, compared with no antibody and V2L2-MD
Description: Cross-reactivity to A549 cells: Using FACS, parental antibody 13-42, optimized antibodies 7C1, 7B1, 8C1, 6D10 as well as V2L2-MD were tested for cross-reactivity to PcrV-negative A549 cells.

PcrV = assay: BIACORE binding to PcrV; parameters: species or system Pseudomonas aeruginosa; details: data not shown
Description: The association constant (ka), dissociation constant (kd) and the equilibrium dissociation constant (kD) for binding of optimized anti-PcrV mAb clones 7B1, 7C1, 8C1, 6D10 and reference antibody V2L2-MD to PcrV were tested by BIACORE (GE company).

BV particles = assay: Cross-reactivity to BV particles by ELISA; format: binding; details: FIG. 3
Description: Cross-reactivity to BV particles: Using ELISA, optimized antibodies 7C1, 7B1, 8C1, 6D10, and reference antibodies V2L2-MD and Mab166 were tested for cross-reactivity to BV particles according to the method described previously (See Hötzel I, et al, 2012, mAbs 4:6, 753-760).

[1] = rat, in vivo, iv
Description: Pharmacokinetic profile in rat: 40 healthy adult rats (about 0.2 kg by weight) were equally into two groups, where each group registered similar average weight. One group was injected intravenously with 30 mg/kg of V2L2-MD, 7C1, 7B1, 8C1 or 6D10 and the other group was injected intravenously with 3 mg/kg of V2L2-MD, 7C1, 7B1, 8C1 or 6D10. Blood was collected at […], and subsequently at 0 hour, 0.5 hour, 2 hour, 8 hour, 1 day, 3 days, 7 days, 11 days, 17 days, 23 days, 31 days, 41 days and 52 days after injection. After centrifugation, the plasma was used for analyzing antibody concentration using ELISA. For the ELISA experiment, synthetic PcrV was used to coat the wells of a 96-well plate. On the following day, after washing with PBST, blocking with 200 μL PBS-milk for an hour, and another wash with PBST, the plasma was added and incubated for an hour at 37° C. The plate was washed with 0.1% TBST for 6 times before 100 μL of Goat-anti-human Fc antibody-AP (1:3000 in PBS) was added to each well and incubated for an hour. After washing with 0.1% TBST for 6 times, 50 μL of pNPP was added to each well and color was developed for 10-20 minutes at 37° C. The signals were read by a microplate reader at 410 nm.

[2] = system: P. aeruginosa (PA103 strain); assay: Therapeutic mouse acute pneumonia model, survival; format: in vivo, BALB/c mice; details: i.v. 1 h post-infection, 1 mg/kg or 10 mg/kg; 1*LD90; 6 days
Description: In a therapeutic model, to induce acute pneumonia, 7-8 week old BALB/c mice (Vital River Laboratory) were intranasally inoculated with P. aeruginosa (PA103 strain) suspended in a 40 μl inoculum at a lethal dose (1*LD90=8×10^5 CFU). Antibodies or PBS were administered intravenously (i.v.) at 1 h post-infection, at a dose of 1 mg/kg or 10 mg/kg mouse weight. Mouse survival was recorded for up to 6 days post-infection.

[3] = system: PcrV mutants (with mutations at position 225); assay: Binding to PcrV mutants with mutations at position 225; parameters: species or system Pseudomonas aeruginosa; details: data not shown
Description: To further illustrate the optimized antibodies could broadly neutralize P. aeruginosa strains, the abilities of these antibodies to bind various forms of PcrV mutants were tested. Briefly, 100 PcrV sequences were randomly selected from Genebank database. In contrast to the wild type sequence as shown in SEQ ID No: 71, 13% of the selected sequences contained R, G, or K at position 225 (as compared of S in the wild type sequence SEQ No: 71), which was the main mutation around the epitope of 7B1.
These findings further illustrate that the optimized anti-PcrV antibodies could neutralize a broad spectrum of P. aeruginosa strains, which might express various forms of PcrV mutants.

[4] = system: P. aeruginosa (PA103 strain); assay: Prophylactic mouse acute pneumonia model, organ burden; format: in vivo, BALB/c mice; details: 10 mg/kg i.p. 24 hr before infection, 0.5*LD90
Description: In a prophylactic model, 7-8 week old BALB/c mice (Vital River Laboratory) were administered with antibodies or PBS intraperitoneally (i.p.) 24 hr before infection, at 10 mg/kg mouse weight. To induce acute pneumonia, the BALB/c mice were intranasally inoculated with P. aeruginosa (PA103 strain) suspended in a 40 μl inoculum at half the lethal dose (0.5*LD90; 3×10^5 CFU). 24 hours post-infection, mice were euthanized, where the lungs, spleens and kidneys were extracted, homogenized and diluted before plating on agar to measure the viable bacteria units (in CFU), which represented the P. aeruginosa burden in the respective organ sample.

[5] = system: Strain 57/66(O6) P. aeruginosa; assay: RBC lysis inhibition assay, strain 57/66(O6); format: cell-based, Pseudomonas aeruginosa; details: Table 7
Description: Monoclonal scFv antibodies were selected and assessed for biological activity by RBC lysis assay. Briefly, red blood cells (RBCs) were prepared from fresh whole human or rabbit blood by centrifugation, supplemented with EDTA and rinsed with multiple phosphate-buffered saline (PBS) washes. Washed RBCs (2.5% [vol/vol] final) in Dulbecco's modified Eagle's medium (DMEM) plus 10% fetal bovine serum (FBS) (Gibco) and purified anti-PcrV antibodies diluted in PBS were combined into wells of a round-bottom 96-well plate. Strain 57/66(O6) P. aeruginosa was grown to mid-log phase in 2× YT medium (Oxford), harvested by centrifugation, and resuspended in DMEM-fetal bovine serum (FBS) at an optical density at 600 nm (OD600) of 0.15. Ten microliters of bacterial suspension was added to the RBC-antibody mixture, mixed by agitation, and incubated for 3 hours at 37° C. and 5% CO2. The plates were briefly centrifuged (1000 rpm, 1 min) to pellet the intact RBCs, the supernatants transferred to a flat-bottom 96-well plate, and the OD405 was measured to detect any lysis, from which the relative amount of lysis inhibition was calculated and plotted. IC50 values for the antibodies were also determined.
The ability of optimized anti-PcrV mAb clones 7B1, 7C1, 8C1, 6D10, 6A10, 5B3, 3B12, 4A10, 2B1, 7B2, 3H10, 3G3, 9B12, 3A9, 2D3, 7B1-1F5, to inhibit red blood cell lysis was compared to the parental 13-42 mAb and the reference antibody V2L2-MD. RBC lysis inhibition assay was performed as described in Example 1.
The optimized anti-PcrV mAb clones 7C1, 8C1, and 7B1 were further analyzed for their abilities to inhibit red blood cell lysis by various strains of P. aeruginosa, namely strains O1-52/66, O16-177/81, and O6-57/66, as compared to the parental 13-42 mAb and the reference antibody V2L2-MD. RBC lysis inhibition assay was performed as described in Example 1.

B1: 6D10: optimized anti-PcrV mAb clone; VH SEQ ID NO: 61, VL SEQ ID NO: 65 (antibody, V domains shown)
VH: EVQLLESGGGLVQPGGSLRLSCTASGFTFSDYPMSWVRQAPGKGLDWVSGISESGGSTNYADSVKGRFSTSRDNSKSTLYLDMNSLRAEDTAIYYCAKGRFSTDSSHFYRAVYGMDVWGQGTAVTVSS
VL: DIQLTQSPSSLSASVGDRVTITCRASQGISSYLAWYQQKPGKAPKLLIYAASTLQSGVPSRFSGSGSGTDFTLTISSLQPEDFATYYCQQLSSYPLSFGGGTKVEIK
binding to PcrV-negative A549 cells (PcrV-negative A549 cells): similarly low levels of A549 binding | association and dissociation kinetics in PcrV binding (ka and kd values) (PcrV): comparable association and dissociation kinetics | non-specific binding to BV particles (BV particles): low levels of non-specific binding | half-lives relative to reference antibody V2L2-MD [1]: comparable to or longer than that of reference antibody V2L2-MD | survival improvement relative to V2L2-MD [2]: survival improvement comparable to that of V2L2-MD | binding to PcrV mutants with R, G or K at position 225 [3]: strongly bind these mutants | reduction of organ burden in the lung, spleen and kidney relative to HIV-10E8 ([4]; FIG. 8B): higher efficacy in reducing organ burden | reduction of organ burden in the lung, spleen and kidney relative to V2L2-MD ([4]; FIG. 8B): comparable efficacy in reducing organ burden

B2: 9B12: optimized anti-PcrV mAb clone; VH SEQ ID NO: 64, VL SEQ ID NO: 67 (antibody, V domains shown)
VH: B1 VH with Y32N, G50V, Y60D, D104N, S106D
VL: B1 VL with S97T
RBC lysis assay IC50 [5]: 0.07 µg/mL

B3: 7B1-1F5: optimized anti-PcrV mAb clone; VH SEQ ID NO: 62, VL SEQ ID NO: 70 (antibody, V domains shown)
VH: B1 VH with Y32N, P33Y, G50V, D104L, Y109F
VL: B1 VL with L11F, V15T, L46V, D70E, S92K, S97T, V104L
RBC lysis assay IC50 [5]: 0.19 µg/mL

B4: 2D3: optimized anti-PcrV mAb clone; VH SEQ ID NO: 53, VL SEQ ID NO: 65 (antibody, V domains shown)
VH: B1 VH with Y32N, P33H, N59Y, T103Y, S105T, S106R, Y109F
VL: B1 VL
RBC lysis assay IC50 [5]: 0.05 µg/mL

B5: 13-42: lead parental full-length human IgG1 anti-PcrV antibody; VH SEQ ID NO: 48, VL SEQ ID NO: 65 (antibody, V domains shown)
VH: B1 VH with Y60D, S102C, D104N, H107C, Y109F
VL: B1 VL
binding to PcrV-negative A549 cells (PcrV-negative A549 cells): similarly low levels of A549 binding | reduction of organ burden in the lung relative to V2L2-MD ([4]; 24 hours post-infection, FIG. 8A): better efficacy in reducing organ burden in the lung
